Results as given in paper doi:10.1101/2024.06.06.597810 (2024).
Where no end group is shown, it is not given here.

T1: Biotin-labeled MHV stem helix peptide (MHV, also: biotin label, position not given here)
T1 chain: PDFKEELDKWFKNQ


Target: T1, Biotin-labeled MHV stem helix peptide
Assay: BLI

Binder	Kd
S2P6 UCA VH Y32Q/M48I double mutant Fab (Fab, V domains shown) VH: QVQLVQSGAEVKKPGASVKVSCKASGYTFTSQYMHWVRQAPGQGLEWIGIINPSGGSTSYAQKFQGRVTMTRDTSTSTVYMELSSLRSEDTAVYYCARGSPKGAFDYWGQGTLVTVSS VL: not shown	1190 nM
S2P6 UCA VH Y32Q Fab (Fab, V domains shown) VH: QVQLVQSGAEVKKPGASVKVSCKASGYTFTSQYMHWVRQAPGQGLEWMGIINPSGGSTSYAQKFQGRVTMTRDTSTSTVYMELSSLRSEDTAVYYCARGSPKGAFDYWGQGTLVTVSS VL: not shown	2260 nM
S2P6 UCA VH S56H Fab (Fab, V domains shown) VH: QVQLVQSGAEVKKPGASVKVSCKASGYTFTSYYMHWVRQAPGQGLEWMGIINPSGGHTSYAQKFQGRVTMTRDTSTSTVYMELSSLRSEDTAVYYCARGSPKGAFDYWGQGTLVTVSS VL: not shown	3760 nM
S2P6 UCA VH M48I Fab (Fab, V domains shown) VH: QVQLVQSGAEVKKPGASVKVSCKASGYTFTSYYMHWVRQAPGQGLEWIGIINPSGGSTSYAQKFQGRVTMTRDTSTSTVYMELSSLRSEDTAVYYCARGSPKGAFDYWGQGTLVTVSS VL: not shown	731 nM
S2P6 UCA VH Y32Q/M48I/S56H triple mutant Fab (Fab, V domains shown) VH: QVQLVQSGAEVKKPGASVKVSCKASGYTFTSQYMHWVRQAPGQGLEWIGIINPSGGHTSYAQKFQGRVTMTRDTSTSTVYMELSSLRSEDTAVYYCARGSPKGAFDYWGQGTLVTVSS VL: not shown	2230 nM
S2P6 UCA VH M48I/S56H double mutant Fab (Fab, V domains shown) VH: QVQLVQSGAEVKKPGASVKVSCKASGYTFTSYYMHWVRQAPGQGLEWIGIINPSGGHTSYAQKFQGRVTMTRDTSTSTVYMELSSLRSEDTAVYYCARGSPKGAFDYWGQGTLVTVSS VL: not shown	1300 nM
